Test [1] addresses T1, Human IL-2Rα/β/γ complex (high affinity IL-2 receptor) (human, UniProt P01589 22-272; P14784 27-551; P31785 23-369).
T1 construct: whole, on cells
T1 sequence (looked up) 1: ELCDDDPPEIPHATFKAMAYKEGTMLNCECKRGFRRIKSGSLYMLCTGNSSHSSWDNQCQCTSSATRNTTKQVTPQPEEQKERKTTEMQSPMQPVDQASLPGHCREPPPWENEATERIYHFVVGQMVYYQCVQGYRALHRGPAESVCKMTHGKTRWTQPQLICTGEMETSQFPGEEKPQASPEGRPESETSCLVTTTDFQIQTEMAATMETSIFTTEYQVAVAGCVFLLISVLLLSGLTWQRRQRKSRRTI
T1 sequence (looked up) 2: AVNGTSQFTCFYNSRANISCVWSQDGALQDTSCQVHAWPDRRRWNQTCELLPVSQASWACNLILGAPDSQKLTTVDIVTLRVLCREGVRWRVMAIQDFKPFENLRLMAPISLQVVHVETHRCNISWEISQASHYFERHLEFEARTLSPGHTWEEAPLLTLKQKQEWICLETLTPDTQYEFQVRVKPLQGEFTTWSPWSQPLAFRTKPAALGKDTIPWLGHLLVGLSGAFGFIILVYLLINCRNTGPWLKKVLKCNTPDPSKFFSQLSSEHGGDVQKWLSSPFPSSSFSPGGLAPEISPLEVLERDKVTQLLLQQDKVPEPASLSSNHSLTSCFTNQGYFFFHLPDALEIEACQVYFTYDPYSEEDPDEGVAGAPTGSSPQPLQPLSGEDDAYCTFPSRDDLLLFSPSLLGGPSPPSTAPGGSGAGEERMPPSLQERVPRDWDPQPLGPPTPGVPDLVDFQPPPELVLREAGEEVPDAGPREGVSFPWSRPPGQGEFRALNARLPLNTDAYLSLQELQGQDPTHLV
T1 sequence (looked up) 3: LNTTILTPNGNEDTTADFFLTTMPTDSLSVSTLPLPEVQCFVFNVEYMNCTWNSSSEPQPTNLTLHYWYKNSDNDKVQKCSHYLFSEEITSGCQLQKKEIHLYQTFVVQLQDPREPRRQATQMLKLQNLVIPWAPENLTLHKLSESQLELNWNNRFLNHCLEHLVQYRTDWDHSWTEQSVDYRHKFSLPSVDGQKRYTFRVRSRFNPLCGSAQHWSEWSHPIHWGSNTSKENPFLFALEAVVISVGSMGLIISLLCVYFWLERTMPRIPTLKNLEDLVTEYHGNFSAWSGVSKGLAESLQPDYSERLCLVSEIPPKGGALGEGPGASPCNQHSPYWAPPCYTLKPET
Description: FACS, MJ20 cells; EC50 fold vs T2U0.E44-1. The protocol: (§1) Human cutaneous T cell lymphoma HH cells, malignant non-Hodgkin's lymphoma NK92 cells and cutaneous T cell lymphoma MJ20 cells were used for binding assay. They both constitutively express IL-2Rβ (CD122) and […] (CD132), and NK92 and MJ20 also expresses IL-2Rα (CD25). HH, NK92 and MJ20 cells were cultured following ATCC guidance, then transferred to a 96-plate for binding analysis. Cells were incubated with IL-2/Fc fusion proteins at the indicated concentrations for 30 min at 4° C. to avoid internalization. Binding was detected by 2nd antibody of PE-anti-human Fc at 4° C. for another 30 min. The median fluorescence intensity (MFI) on HH and NK92 cells was measured using FACS.
(§2) Affinity of IL-2 variants to IL-2Rα/β/γ supported the same results (FIG. 8 and Table 7). […] And T2U0.E44-26, T2U0.E44-27, T2U0.E44-29 and T2U0.E44-30 induced hundreds to thousands affinity reduction in Treg compared to T2U0.E44-1. Binding curves in MJ20 cells (IL-2Rα/β/γ) also achieved similar trend (FIG. 8b). As a result, the method of C-terminal truncation and substitution of 129 was available to achieve IL-2Rβγ attenuated IL-2 variants.
A general note: In flow cytometry, cells or beads pass a laser one at a time.

For test [2], the target named is T2, Human IL-2Rβ/γ (intermediate affinity IL-2 receptor) (human, UniProt P14784 27-551; P31785 23-369).
T2 construct: whole, on cells; also called IL-2Rβ/γc; IL-2Rβ (CD122) and γ (CD132)
T2 sequence (looked up) 1: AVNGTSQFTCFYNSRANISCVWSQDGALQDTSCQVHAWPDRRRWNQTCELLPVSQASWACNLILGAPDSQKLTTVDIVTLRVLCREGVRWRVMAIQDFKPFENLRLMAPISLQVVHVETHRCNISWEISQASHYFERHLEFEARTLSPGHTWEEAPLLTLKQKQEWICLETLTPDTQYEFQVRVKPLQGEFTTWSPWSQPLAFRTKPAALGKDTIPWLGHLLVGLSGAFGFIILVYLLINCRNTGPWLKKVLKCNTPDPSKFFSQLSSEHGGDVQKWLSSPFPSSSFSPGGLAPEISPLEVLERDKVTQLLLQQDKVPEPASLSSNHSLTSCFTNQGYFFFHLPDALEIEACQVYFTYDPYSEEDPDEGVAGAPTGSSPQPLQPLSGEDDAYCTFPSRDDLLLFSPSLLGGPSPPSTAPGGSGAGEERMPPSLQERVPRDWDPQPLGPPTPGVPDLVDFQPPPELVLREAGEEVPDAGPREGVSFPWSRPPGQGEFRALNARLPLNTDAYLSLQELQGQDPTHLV
T2 sequence (looked up) 2: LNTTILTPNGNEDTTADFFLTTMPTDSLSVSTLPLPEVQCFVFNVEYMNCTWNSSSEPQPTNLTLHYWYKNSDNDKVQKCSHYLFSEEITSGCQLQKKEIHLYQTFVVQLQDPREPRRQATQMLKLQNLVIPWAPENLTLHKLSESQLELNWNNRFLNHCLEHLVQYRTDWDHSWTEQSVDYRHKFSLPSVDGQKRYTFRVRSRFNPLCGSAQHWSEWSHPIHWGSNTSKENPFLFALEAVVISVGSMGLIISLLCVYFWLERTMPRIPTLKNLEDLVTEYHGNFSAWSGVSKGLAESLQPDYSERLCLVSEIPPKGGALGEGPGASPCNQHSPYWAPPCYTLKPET
Kind of test: FACS, HH cells; EC50 fold vs T2U0.E44-1. The protocol: as §1

The target in test [3] is T2, Human IL-2Rβ/γ (intermediate affinity …). Kind of test: FACS, HH cells. The protocol: as §1
Test [4] deals with T1, Human IL-2Rα/β/γ complex (high affinity …). Description: cell-based or functional assay.
Test [5] deals with T2, Human IL-2Rβ/γ (intermediate affinity …). Kind of test: cell-based or functional assay.
The target of test [6] is T1, Human IL-2Rα/β/γ complex (high affinity …). Kind of test: FACS, MJ20 cells. The protocol:
as §1, §2

Broadly, the EC50 is the concentration needed to bring the measured effect to its halfway point. A higher EC50 goes with a less potent agent.

B1: W3XX115-T2U0.E44-26.uIgG4V1 (Fc fusion)
chain: APTSSSTKKTQLQLEHLLLDLQMILNGINNYKNPKLTRMLTFKFYMPKKATELKHLQCLEEELKPLEEVLNLAQSKNFHLRPRDLISNINVIVLELKGSETTFMCEYADETATIVEFLNRWITFCQSILESKYGPPCPPCPAPEFLGGPSVFLFPPKPKDTLMISRTPEVTCVVVDVSQEDPEVQFNWYVDGVEVHNAKTKPREEQFNSTYRVVSVLTVLHQDWLNGKEYKCKVSNKGLPSSIEKTISKAKGQPREPQVYTLPPCQEEMTKNQVSLWCLVKGFYPSDIAVEWESNGQPENNYKTTPPVLDSDGSFFLYSRLTVDKSRWQEGNVFSCSVMHEALHNHYTQKSLSLSLG
heavy: EIQLQQSGPELVKPGASVKVSCKASGYSFTDYNMYWVKQSHGESLEWIGYIDPYNGGTRYNQKFKGKATLTVDKSSSTAFMHLNSLTSEDSAVYYCARNGHWDGAWFAYWGQGTLVTVSAASTKGPSVFPLAPCSRSTSESTAALGCLVKDYFPEPVTVSWNSGALTSGVHTFPAVLQSSGLYSLSSVVTVPSSSLGTKTYTCNVDHKPSNTKVDKRVESKYGPPCPPCPAPEFLGGPSVFLFPPKPKDTLMISRTPEVTCVVVDVSQEDPEVQFNWYVDGVEVHNAKTKPREEQFNSTYRVVSVLTVLHQDWLNGKEYKCKVSNKGLPSSIEKTISKAKGQPREPQVCTLPPSQEEMTKNQVSLSCAVKGFYPSDIAVEWESNGQPENNYKTTPPVLDSDGSFFLVSRLTVDKSRWQEGNVFSCSVMHEALHNHYTQKSLSLSLG
light: DIQMNQSPSSLSASLGDTITITCHASQNINVWLSWYQQKPGNIPKLLIYKASNLHTGVPSRFSGSRSGTGFTLTISSLQPEDIATYYCHQGQSYPFTFGSGTKLEIKRTVAAPSVFIFPPSDEQLKSGTASVVCLLNNFYPREAKVQWKVDNALQSGNSQESVTEQDSKDSTYSLSSTLTLSKADYEKHKVYACEVTHQGLSSPVTKSFNRGEC
notes: IL-2 del STLT and I129L; E44 format, IgG4
For the molecule B1, the Affinity reduction came out at 3.1 fold in test [1] and 18.5 fold in test [2]. Besides, the results for the EC50 in test [3] and in test [6] were 993 nM and 42.8 nM, respectively. For the same molecule, the “Potency in human Treg EC50” value in test [4] worked out at 1.16 nM. For the same molecule, in test [4], the “Potency reduction (Treg)” value was found to be 460 fold. Further, in test [5], the “Potency in human CD8+ T EC50” value is 649 nM. In test [5], the “Potency reduction (CD8+ T)” value came to 32.5 fold.

B2: W3XX115-T2U0.E44-27.uIgG4V1 (Fc fusion)
chain: APTSSSTKKTQLQLEHLLLDLQMILNGINNYKNPKLTRMLTFKFYMPKKATELKHLQCLEEELKPLEEVLNLAQSKNFHLRPRDLISNINVIVLELKGSETTFMCEYADETATIVEFLNRWITFCQSIVESKYGPPCPPCPAPEFLGGPSVFLFPPKPKDTLMISRTPEVTCVVVDVSQEDPEVQFNWYVDGVEVHNAKTKPREEQFNSTYRVVSVLTVLHQDWLNGKEYKCKVSNKGLPSSIEKTISKAKGQPREPQVYTLPPCQEEMTKNQVSLWCLVKGFYPSDIAVEWESNGQPENNYKTTPPVLDSDGSFFLYSRLTVDKSRWQEGNVFSCSVMHEALHNHYTQKSLSLSLG
heavy: EIQLQQSGPELVKPGASVKVSCKASGYSFTDYNMYWVKQSHGESLEWIGYIDPYNGGTRYNQKFKGKATLTVDKSSSTAFMHLNSLTSEDSAVYYCARNGHWDGAWFAYWGQGTLVTVSAASTKGPSVFPLAPCSRSTSESTAALGCLVKDYFPEPVTVSWNSGALTSGVHTFPAVLQSSGLYSLSSVVTVPSSSLGTKTYTCNVDHKPSNTKVDKRVESKYGPPCPPCPAPEFLGGPSVFLFPPKPKDTLMISRTPEVTCVVVDVSQEDPEVQFNWYVDGVEVHNAKTKPREEQFNSTYRVVSVLTVLHQDWLNGKEYKCKVSNKGLPSSIEKTISKAKGQPREPQVCTLPPSQEEMTKNQVSLSCAVKGFYPSDIAVEWESNGQPENNYKTTPPVLDSDGSFFLVSRLTVDKSRWQEGNVFSCSVMHEALHNHYTQKSLSLSLG
light: DIQMNQSPSSLSASLGDTITITCHASQNINVWLSWYQQKPGNIPKLLIYKASNLHTGVPSRFSGSRSGTGFTLTISSLQPEDIATYYCHQGQSYPFTFGSGTKLEIKRTVAAPSVFIFPPSDEQLKSGTASVVCLLNNFYPREAKVQWKVDNALQSGNSQESVTEQDSKDSTYSLSSTLTLSKADYEKHKVYACEVTHQGLSSPVTKSFNRGEC
notes: IL-2 del STLT and I129V; E44 format, IgG4
Consider B2, for which the Affinity reduction is 5.4 fold in test [1] and 51.1 fold in test [2]. Moreover, the EC50 in test [3] came out at 2740 nM; in test [6] it was 75.3 nM. For the same molecule, the “Potency in human Treg EC50” value in test [4] was 1.85 nM. Also, the “Potency reduction (Treg)” value in test [4] was found to be 737 fold. For the same molecule, the “Potency in human CD8+ T EC50” value in test [5] was 371 nM. Moreover, the “Potency reduction (CD8+ T)” value in test [5] stood at 18.5 fold.

The record behind these values is patent US20250000946A1 (WUXI BIOLOGICS IRELAND, published 2025).
